For one test, the system named is ICR female mice. The experiment in a line: Number of ovulated oocytes in DXR-treated mice given rPEDF. The following applies: rPEDF 2 mg/kg SC the day after DXR 6 mg/kg IV; vs DXR alone. The class given is in vivo, mouse. The procedure:
FIG. 2A is an illustration depicting the experimental setting: 7 weeks ICR female mice (n=4/group) were treated with DXR or saline (control), at the day after mice were administrated with rPEDF or TRIS (control). On the fourth day of the experiment mice were induced for superovulation with the standard PMSG/hCG protocol [Ben-Aharon et al. Reproductive Biology and Endocrinology: RB&E (2010) 8: 20]. Mice were sacrificed 16-17 hours after hCG administration.
DXR damage was evaluated in 7 weeks ICR female mice following treatment for superovulation with pregnant mares' serum (PMSG, 7 IU) SC on day 0 and human chorionic gonadotropin (hCG, […]) SC on day 2. On day 1, mice were administered with DXR (6 mg/kg) or saline (control) IV. Mice ovaries were retrieved on day 3 (FIG. 1A). The ability of rPEDF to overcome the destructive effect of DXR 7 weeks ICR female mice were treated with DXR (6 mg/kg) or saline (control) IV on day 0, rPEDF (2 mg/kg) or TRIS (control) was administered SC on day 1, followed by induction for superovulation with PMSG (7 IU) SC on day 4 and hCG (7 IU) SC on day 6. […]
cumulus-enclosed oocytes were isolated from the oviductal ampullae into M2 medium (Sigma), 16-18 hrs after hCG administration. Cumulus cells were removed by a brief exposure to 400 IU/ml hyaluronidase (Sigma) and the number of ovulated oocytes was counted under binocular.

Another test deals with LH-15 cells. The experiment in a line: MTT cell viability assay in LH-15 granulosa cells under H2O2. It is filed as cell-based, rat. The note with it: rPEDF 1 nM or 5 nM with 100 or 200 μM H2O2, 24 hours. The procedure: (§1) Rat granulosa cell line LH-15 [Suh et al. J Cell Biol (1992) 119: 439-450] was cultured in hormone-free DMEM-F12 medium, supplemented with penicillin (100 IU/ml; Biological Industries), streptomycin ([…]; Biological Industries) and 10% charcoal-stripped fetal bovine serum (CS-FBS; Invitrogen) (culture medium), as described previously (Breckwoldt et al. 1996, Sasson & Amsterdam 2002). Cells were serum-starved for 16 hours (0.1% CS-FBS) prior to and during recombinant PEDF (rPEDF) stimulation or incubated in 2% CS-FBS during H2O2 stimulation.
Equal amount of LH-15 cells were seeded onto 6-well plates to a final volume of 500 μl. Following treatments, each well was incubated for 30 minutes with 10 μl of MTT [3-(4, 5-Dimethylthiazol-2-yl)-2, 5-diphenyltetrazolium bromide; 5 mg/ml] followed by an additional 2-4 hours incubation period at 37° C. The reaction was terminated by addition of 110 μl HCl (0.07 M in isopropanol) and OD 560 nm was measured by the SpectraMax 190 microplate reader ([…], Eugene, Oreg., USA).

In a further test the test system is BAX. Put plainly: BAX protein level (western blot) in LH-15 cells under H2O2. The note with it: exogenous rPEDF added to H2O2; P<0.05. The class given is cell-based, rat. As to the method: as §1
(§2) Samples were homogenized in cold lysis buffer (20 mM HEPES, 150 mM NaCl and 0.2% Igepal; sigma) and centrifuged at 12,000 rpm, for 15 min, at 4° C.). Proteins were separated by sodium dodecyl sulfate polyacrylamide gel electrophoresis (SDS-PAGE; 10%; Bio-Rad, Israel). Separated proteins were transferred onto nitrocellulose membranes (Whatman GmbH, Germany) in a mini tank transfer unit (TE 22, Amersham, UK). Approximate molecular masses were determined by comparison with the migration of pre-stained protein standards (Bio-Rad). Blots were blocked for 1 hour in TBST (10 mM Tris-HCl, pH=8.0, 150 mM NaCl, 0.05% Tween 20) containing 5% skim-milk (Alba, N.Y., USA) followed by an over-night incubation at 4° C. with primary antibodies. […] Intensity of the protein bands was quantified by Image J […] (NIH).

In a further test the test system is SOD-1. Put plainly: SOD-1 mRNA level (qPCR) in LH-15 cells under H2O2. The class given is cell-based, rat. The note with it: rPEDF 1 nM added to H2O2. The procedure:
as §1
(§3) Total RNA was isolated from various tissues (ovaries, eyes) or from granulosa cells, using Trizol reagent (Invitrogen) according to manufacturer's instructions, and quantified with the Nano-Drop spectrophotometer (ND-1000; Thermo Scientific). First-strand cDNA was produced by RT (Maxima™ Reverse transcriptase, Thermo Scientific) from a total of 1 μg RNA, using oligo-dt primers (Thermo Scientific). DNA was amplified using 1 μl RT reaction and 50 pmol gene-specific primers in ReadyMix™ mixture (Sigma). […] Changes in the level of expression of mRNA were detected by SYBR green reagent (SYBR® Green PCR Master Mix, ABI, Carlsbad, Calif., USA) along with 15 ng cDNA and specific primers, on a StepOnePlus Real-Time PCR System (Applied Biosystems, Foster City, Calif., USA).

The test system of a further test is GPX-1. The experiment in a line: GPX-1 mRNA level (qPCR) in LH-15 cells under H2O2. The class given is cell-based, rat. The following applies: rPEDF 1 nM added to H2O2. As to the method: as §1, §3
Test [1] concerns AKT. Put plainly: AKT phosphorylation (western blot) in serum-starved LH-15 cells. It is filed as cell-based, rat. The note with it: 1 nM rPEDF, various durations, P<0.05. As to the method: as §1, §2
The test system of test [2] is ovariectomized (OVX) ICR mice. The experiment in a line: Uterine weight, sub-acute tamoxifen model in ovariectomized mice. It is filed as in vivo, mouse. The following applies: rPEDF 10 mg/kg SC with tamoxifen 2.5 μg/mouse daily for 7 days. The procedure:
(§4) DXR damage was evaluated in 7 weeks ICR female mice following treatment for superovulation with pregnant mares' serum (PMSG, 7 IU) SC on day 0 and human chorionic gonadotropin (hCG, […]) SC on day 2. On day 1, mice were administered with DXR (6 mg/kg) or saline (control) IV. Mice ovaries were retrieved on day 3 (FIG. 1A). The ability of rPEDF to overcome the destructive effect of DXR 7 weeks ICR female mice were treated with DXR (6 mg/kg) or saline (control) IV on day 0, rPEDF (2 mg/kg) or TRIS (control) was administered SC on day 1, followed by induction for superovulation with PMSG (7 IU) SC on day 4 and hCG (7 IU) SC on day 6. Mice ovaries were retrieved on day 7 (FIG. 2A). […] Mice uteri were excised at day 7. […] Mice treated with tamoxifen alone served as control. […] Mice treated with tamoxifen alone served as control.
(§5) At the end of each experiment, uteri were isolated, excised and weighed.

For test [3], the system named is VEGF. Put plainly: Uterine VEGF protein (western blot), sub-acute tamoxifen model. The class given is in vivo, mouse. The note with it: rPEDF 10 mg/kg SC with tamoxifen 2.5 μg/mouse daily for 7 days. As to the method:
as §4
(§6) Samples were homogenized in cold lysis buffer (20 mM HEPES, 150 mM NaCl and 0.2% Igepal; sigma) and centrifuged at 12,000 rpm, for 15 min, at 4° C.). Proteins were separated by sodium dodecyl sulfate polyacrylamide gel electrophoresis (SDS-PAGE; 10%; Bio-Rad, Israel). […] Approximate molecular masses were determined by comparison with the migration of pre-stained protein standards (Bio-Rad). […] Intensity of the protein bands was quantified by Image J […] (NIH).

The test system of test [4] is AKT. The experiment in a line: Uterine AKT phosphorylation (western blot), sub-acute tamoxifen model. The note with it: 7 days. It is filed as in vivo, mouse. As to the method: as §4, §6
Another test relates to JNK. Put plainly: Uterine JNK phosphorylation (western blot), sub-acute tamoxifen model. It is filed as in vivo, mouse. The note with it: 7 days. The procedure:
as §4, §6

In another test the test system is OVX ICR mice. Put plainly: Uterine weight, prolonged tamoxifen model in ovariectomized mice. It is filed as in vivo, mouse. As to the method: as §4, §5
Test [5] deals with VEGF. Put plainly: Uterine VEGF protein (western blot), prolonged tamoxifen model. The class given is in vivo, mouse. The following applies: rPEDF 2 mg/kg SC once every 3 days from day 8 of one-month tamoxifen treatment. The procedure: as §4, §6
The subject of the next test is CD34. The experiment in a line: CD34 immunohistochemical staining of uterine blood vessels, prolonged tamoxifen model. The note with it: prolonged treatment. It is filed as in vivo, mouse. The procedure: as §4
Paraffin-embedded sections were deparaffinized, microwave heated while being subjected to an antigen retrieval agent (H-3300, Vector Laboratories Inc., Burlingame, Calif., USA), cooled on ice to room temperature, rinsed in PBS, incubated for 1 hour with PBSTg (0.2% Tween and gelatin in PBS), washed with PBS, blocked for 10 minutes in blocking solution (Cell Marque Corporation, Calif., USA) and incubated overnight with anti PNPLA2 or anti-CD34 primary antibodies. […]

Test [6] deals with ERα. Put plainly: Uterine ERα mRNA (qPCR), sub-acute tamoxifen model. It is filed as in vivo, mouse. The note with it: sub-acute tamoxifen model.
In test [7] the test system is ERα. The experiment in a line: Uterine ERα mRNA (qPCR), prolonged tamoxifen model. The following applies: prolonged tamoxifen model. The class given is in vivo, mouse.
A further test deals with ERβ. Put plainly: Uterine ERβ mRNA (qPCR), prolonged tamoxifen model. The class given is in vivo, mouse. The note with it: tamoxifen models taken together.
Test [8] deals with progesterone receptor (PR). The experiment in a line: Uterine PR mRNA (qPCR), prolonged tamoxifen model. It is filed as in vivo, mouse. The note with it: tamoxifen models taken together. As to the method: DXR damage was evaluated in 7 weeks ICR female mice following treatment for superovulation with pregnant mares' serum (PMSG, 7 IU) SC on day 0 and human chorionic gonadotropin (hCG, […]) SC on day 2. On day 1, mice were administered with DXR (6 mg/kg) or saline (control) IV. Mice ovaries were retrieved on day 3 (FIG. 1A). The ability of rPEDF to overcome the destructive effect of DXR 7 weeks ICR female mice were treated with DXR (6 mg/kg) or saline (control) IV on day 0, rPEDF (2 mg/kg) or TRIS (control) was administered SC on day 1, followed by induction for superovulation with PMSG (7 IU) SC on day 4 and hCG (7 IU) SC on day 6. Mice ovaries were retrieved on day 7 (FIG. 2A). […] Mice uteri were excised at day 7. […] Mice treated with tamoxifen alone served as control. […]
as §3, with “First-strand cDNA was produced by RT (Maxima™ Reverse transcriptase, Thermo Scientific) from a total of 1 μg RNA, using oligo-dt primers (Thermo Scientific).” left out

For test [9], the system named is ERα. The experiment in a line: Uterine ERα protein (western blot), prolonged tamoxifen model. The class given is in vivo, mouse. As to the method: as §4, §6

These results are taken from patent publication US10130682B2, “Methods of using pigment epithelium derived factor (PEDF) for the treatment and prevention of agent-induced gonadal or uterine toxicity” (Ramot at Tel-Aviv University Ltd., priority 2014, dated 2018).

B1: rPEDF: Human recombinant PEDF (NM_002615.4, SEQ ID NO: 1) expressed in E. coli BL21, purified on Ni-NTA His-Bind resin (protein, UniProt P36955 20-418, looked up)
Pigment epithelium-derived …: QNPASPPEEGSPDPDSTGALVEEEDPFFKVPVNKLAAAVSNFGYDLYRVRSSTSPTTNVLLSPLSVATALSALSLGAEQRTESIIHRALYYDLISSPDIHGTYKELLDTVTAPQKNLKSASRIVFEKKLRIKSSFVAPLEKSYGTRPRVLTGNPRLDLQEINNWVQAQMKGKLARSTKEIPDEISILLLGVAHFKGQWVTKFDSRKTSLEDFYLDEERTVRVPMMSDPKAVLRYGLDSDLSCKIAQLPLTGSMSIIFFLPLKVTQNLTLIEESLTSEFIHDIDRELKTVQAVLTVPKLKLSYEGEVTKSLQEMKLQSLFDSPDFSKITGKPIKLTQVEHRAGFEWNEDGAGTTPSPGLQPAHLTFPLDYHLNQPFIFVLRDTDTGALLFIGKILDPRGP
modifications: His tag
Turning to B1, in the test with ICR female mice, the “number of ovulated oocytes” value was “significantly (P<0.05) decreased DXR-induced reduction in number of ovulated oocytes”. In the test on LH-15 cells, the “cells viability (MTT) under H2O2” value is given as “significantly (P<0.05) decreased H2O2-induced reduction in cells viability”. Further, in the test on BAX, the “BAX expression under H2O2” value is on record as “decreased its expression”. For the same molecule, the “SOD-1 mRNA expression under H2O2” value with SOD-1 is “elevated their expression”. Moreover, the “GPX-1 mRNA expression under H2O2” value in the test with GPX-1 is “elevated their expression”. For the same molecule, the “phosphorylation of AKT” value in the test on AKT [1] is given as “induced prolonged, time-dependent phosphorylation of AKT starting at 5 minutes”. The “uterine weight, tamoxifen+rPEDF vs tamoxifen alone” value in [2] is “significant decrease”. The “uterine VEGF protein levels, tamoxifen+rPEDF vs tamoxifen alone” value in the test with VEGF [3] is given as “significant decrease”. The “uterine AKT phosphorylation, tamoxifen+rPEDF vs tamoxifen alone” value with AKT [4] was “significant decrease in phosphorylation of AKT”. Further, in the test on JNK, the “uterine JNK phosphorylation, tamoxifen+rPEDF vs tamoxifen alone” value is given as “increase in phosphorylation of JNK”. Also, the “effectiveness of rPEDF treatment by timing of administration” value in the test with OVX ICR mice (preliminary analysis, data not shown, prolonged tamoxifen model) is “more effective when administered following a short period of initiation with tamoxifen”. Besides, the “uterine weights, tamoxifen+rPEDF vs tamoxifen alone” value in the test with OVX ICR mice (rPEDF 2 mg/kg SC once every 3 days from day 8 of one-month tamoxifen treatment) was “down-regulated in mice treated with tamoxifen+rPEDF, though not statistically significant (p=0.2)”. In the test on VEGF [5], the “uterine VEGF protein expression, tamoxifen+rPEDF vs tamoxifen alone” value is “significantly decreased”. Also, the “CD34 staining in uteri, tamoxifen+rPEDF vs tamoxifen alone” value with CD34 was “decrease in CD34 staining”. In addition, the “ERα mRNA levels in uteri, rPEDF with tamoxifen” value in the test with ERα [6] is listed as “able to attenuate the sub-acute tamoxifen-induced reduction in ERα mRNA levels”; in the test with ERα [7], “able to reverse the prolonged tamoxifen-induced reduction in ERα mRNA levels”. The “ERβ expression in uteri, rPEDF with tamoxifen” value in the test on ERβ was “without modifying the expression”. The “PR expression in uteri, rPEDF with tamoxifen” value in test [8] is given as “without modifying the expression”. Also, the “ERα protein expression in uteri, rPEDF with tamoxifen” value with ERα [9] was “down-regulate the expression of ERα protein”.
